Assay results as given in IntAct's records for PubMed 11412997.

Molecular target: par6_caeel par-6 (UniProt Q9NAN2)
Sequence (Q9NAN2 whole entry): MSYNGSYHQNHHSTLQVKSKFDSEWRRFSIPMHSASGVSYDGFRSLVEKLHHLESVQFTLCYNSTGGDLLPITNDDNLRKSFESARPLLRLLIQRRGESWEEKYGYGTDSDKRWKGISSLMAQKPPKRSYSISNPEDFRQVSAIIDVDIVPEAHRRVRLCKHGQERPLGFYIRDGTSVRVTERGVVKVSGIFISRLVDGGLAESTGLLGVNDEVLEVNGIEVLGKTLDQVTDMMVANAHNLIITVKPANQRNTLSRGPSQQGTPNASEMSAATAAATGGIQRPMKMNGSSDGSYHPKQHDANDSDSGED

Sequence of Cell division control protein 42 homolog (Caenorhabditis elegans), Q05062 T17N (Q05062 whole entry T17N): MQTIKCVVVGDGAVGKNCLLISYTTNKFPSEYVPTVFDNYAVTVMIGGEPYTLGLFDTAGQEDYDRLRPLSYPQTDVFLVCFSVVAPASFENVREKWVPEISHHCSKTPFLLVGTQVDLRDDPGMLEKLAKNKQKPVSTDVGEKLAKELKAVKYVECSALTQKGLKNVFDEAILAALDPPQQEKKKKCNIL

Cell division control protein 42 homolog (Caenorhabditis elegans), Q05062 T17N
effect of a mutation on the interaction: disrupting interaction
